The record followed here is patent US6051381, “Prokaryotic two-hybrid system” (dated 2000).

Assay [1] has as its target Jun-LexADNA (mouse; E. coli) (UniProt P05627). As to the kind of experiment: E. coli two-hybrid, lacZ repression; reporter construct P3IHFLexAOpH.
For assay [2] the target is unchanged. Nature of the assay: E. coli two-hybrid, lacZ repression; reporter construct P3IHFLexAOpX.
For assay [3] the target is unchanged. As to the kind of experiment: E. coli two-hybrid, lacZ repression; reporter construct P3LexAOpH.
For assay [4] the target is unchanged. As to the kind of experiment: E. coli two-hybrid, lacZ repression; reporter construct P3.
The target is the same in assay [5]. Nature of the assay: E. coli two-hybrid, lacZ repression; reporter construct P3LexAOpX.
Assay [6] shares this target. As to the kind of experiment: E. coli two-hybrid, lacZ repression; reporter construct P3IHFLexAOpmH.
In assay [7] the target is Fos-LexA (E. coli; mouse) (UniProt P01101). As to the kind of experiment: E. coli two-hybrid, lacZ repression; reporter plasmid P3IHFLexAOpimpX.
The target in assay [8] is E6-LexA (E. coli; HPV) (UniProt P0A7C2). Nature of the assay: E. coli two-hybrid, lacZ repression; 0.5 mM IPTG, 50 ng/ml anhydrotetracycline; reporter P3IHFLexAimpX.
Assay [9] addresses zip-LexADNA (E. coli). As to the kind of experiment: E. coli two-hybrid, lacZ repression; reporter construct P3LexAOpH.
In assay [10] the target is zip-LexADNA (E. coli). Nature of the assay: E. coli two-hybrid, lacZ repression; reporter construct P3IHFLexAOpmH.
Assay [11] concerns the target zip-LexADNA (E. coli). Nature of the assay: E. coli two-hybrid, lacZ repression; reporter construct P3.
Assay [12] addresses zip-LexADNA (E. coli). Nature of the assay: E. coli two-hybrid, lacZ repression; reporter construct P3IHFLexAOpH.
The target of assay [13] is zip-LexADNA (E. coli). Nature of the assay: E. coli two-hybrid, lacZ repression; reporter construct P3LexAOpX.
In assay [14] the target is zip-LexADNA (E. coli). Nature of the assay: E. coli two-hybrid, lacZ repression; reporter construct P3IHFLexAOpX.
For another assay, the target named is T1, wild-type AraC (E. coli, UniProt P0A9E0).
T1 sequence: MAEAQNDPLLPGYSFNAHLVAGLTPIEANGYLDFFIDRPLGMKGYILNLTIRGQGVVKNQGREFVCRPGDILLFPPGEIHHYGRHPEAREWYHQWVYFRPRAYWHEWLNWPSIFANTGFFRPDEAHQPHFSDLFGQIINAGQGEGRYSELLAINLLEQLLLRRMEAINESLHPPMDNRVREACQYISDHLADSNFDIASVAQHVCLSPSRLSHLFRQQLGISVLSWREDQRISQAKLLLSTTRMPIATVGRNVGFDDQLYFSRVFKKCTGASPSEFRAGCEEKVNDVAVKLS
Nature of the assay: E. coli two-hybrid, lacZ repression, reporter P3IHFLexAOpimpX.

Assay [15] addresses E6-LexA (E. coli; HPV) (UniProt P0A7C2). As to the kind of experiment: E. coli two-hybrid, lacZ repression; non-interacting control pair; reporter P3IHFLexAimpX.

A value given as a limit tells only on which side of the number the result lay.

On to Fos-AraCDNA (from UniProt P01101), for which the repression ratio in assay [1] turned out to be 1.9; in assay [2], 4.2; in assay [3], 2; in assay [4] it was 1.1; in assay [5], 2.3.

On to AraCDNA, for which the values for the repression ratio in assay [6] and in assay [2] were 1.09 and 1.1, respectively.

In the case of Jun-AraC (from UniProt P05627), the repression ratio in assay [7] came out at 11 fold.

As to E6AP-AraCDNA (from UniProt Q05086), in the assay with E6-LexA (E. coli; HPV) [8], the repression ratio was greater than 30 fold.

B1: wild-type AraC (protein)
chain: T1 sequence
Take B1: the repression ratio is 1.1 with zip-LexADNA (E. coli) [9]; 1.06 with zip-LexADNA (E. coli) [10]; 1.2 in the assay with zip-LexADNA (E. coli) [11]; 1 with zip-LexADNA (E. coli) [12]; 1.2 in the assay with zip-LexADNA (E. coli) [13]; 1.2 with zip-LexADNA (E. coli) [14].

B2: Fos-LexA (other)
chain: RGKVEQLSPEEEEKRRIRRERNKMAAAKCRNRRRELTDTLQAETDQLEDEKSALQTEIANLLKEKEKLEFILAAHRPACKIPDDLGFPEEMSV
For B2, the binding result with wild-type AraC is “no binding”.

B3: AraCDNA (protein)
chain: ESLHPPMDNRVREACQYISDHLADSNFDIASVAQHVCLSPSRLSHLFRQQLGISVLSWREDQRISQAKLLLSTTRMPIATVGRNVGFDDQLYFSRVFKKCTGASPSEFRAGCEEKVNDVAVKLS
As to B3, the repression ratio with zip-LexADNA (E. coli) [9] worked out at 1; in the assay with zip-LexADNA (E. coli) [10], 0.9; with zip-LexADNA (E. coli) [11] it was 1.2; with zip-LexADNA (E. coli) [12], 1.1; with E6-LexA (E. coli; HPV) [15] it was 1.5; with zip-LexADNA (E. coli) [13] it was 1.1. Also, the repression ratio with zip-LexADNA (E. coli) [14] worked out at 1.2.
